{"source": "paper PMC11352566", "about": "“Recombinant C-Terminal Catalytic Domain of Rat L-Gulono Lactone Oxidase Produced in Bacterial Cells Is Enzymatically Active” (Current Issues in Molecular Biology, 2024)", "proteins": {"B1": {"name": "cGULO (C-terminal catalytic domain of rat GULO, cGULO-His) (Rattus norvegicus) (protein)", "chain": "NRFFFWMLFNCKKESSNLSHKIFTYECRFKQHVQDWAIPREKTKEALLELKAMLEAHPKVVAHYPVEVRFTRGDDILLSPCFQRDSCYMNIIMYRPYGKDVPRLDYWLAYETIMKKFGGRPHWAKAHNCTQKDFEEMYPTFHKFCDIREKLDPTGMFLNSYLEKVFY", "notes": "C-terminal cytoplasmic (catalytic ALO) domain, 167 residues, lacks 273 N-terminal residues incl"}, "B2": {"name": "fGULO (full-length rat GULO, fGULO-His) (Rattus norvegicus) (protein)", "chain": "MVHGYKGVQFQNWAKTYGCSPEVYYQPTSVEEVREVLALAREQKKKVKVVGGGHSPSDIACTDGFMIHMGKMNRVLQVDKEKKQITVEAGILLADLHPQLDEHGLAMSNLGAVSDVTVAGVIGSGTHNTGIKHGILATQVVALTLMTADGEVLECSESRNADVFQAARVHLGCLGIILTVTLQCVPQFHLQETSFPSTLKEVLDNLDSHLKRSEYFRFLWFPHTENVSIIYQDHTNKAPSSASNWFWDYAIGFYLLEFLLWTSTYLPCLVGWINRFFFWMLFNCKKESSNLSHKIFTYECRFKQHVQDWAIPREKTKEALLELKAMLEAHPKVVAHYPVEVRFTRGDDILLSPCFQRDSCYMNIIMYRPYGKDVPRLDYWLAYETIMKKFGGRPHWAKAHNCTQKDFEEMYPTFHKFCDIREKLDPTGMFLNSYLEKVFY"}}, "substrate": "O=C1O[C@H]([C@@H](O)CO)[C@H](O)[C@@H]1O", "test": "ascorbic acid formation, colorimetric kit; Lineweaver-Burk", "format": "biochemical, Rattus norvegicus", "details": "50 mM potassium phosphate pH 7.0, 50 mM citrate, 1 mM DTT, 10 µM FAD, aerobic (O2), 37 °C", "data": [{"protein": "B1", "values": [{"measurement": "Km", "value": "42 ± 6.3", "unit": "µM"}]}, {"protein": "B2", "values": [{"measurement": "Km", "value": "53.5 ± 5", "unit": "µM"}]}]}
